According to the RNAGym collection of RNA variant scans (doi:10.7554/elife.90254):

B1: OR4K15 (parent)
chain: GUUAACGGUCAUAGGCCAUGGAAACUAGGAGCACCAUUUCGCUGCCAGUGAAGAAAUGAACAAAGAAAAUCUGGGCCAGGCAGGCAUCAAAAGAAAUAGUCUUGCGCUCAACCAGAAAGUCUGUAAUCAUUUUAAGGGUA

Variants of: B1
Assay: self-cleavage, relative activity (ratio to wild type); higher = more cleavage; in vitro, sequencing; the parent is a self-cleaving ribozyme

Variant | self-cleavage
G7U A60G | 0.79
U9A A82G | 1.13
A5U A51U | 0.66
A5U A126G | 1.07
G7U A91G | 0.72
G7A U26C | 1.44
G7A U26A | 0.93
A5G U120A | 1.77
A5G U120C | 0.86
A5C U122C | 0.99
A4G U127C | 0.38
G7A A24G | 1.4
G7U U122A | 1.64
G7A G75U | 0.13
A5G A117G | 1.51
G7A C112U | 0.02
A4G C105U | 0.14
A4G A135G | 1.18
G7U A18G | 1.68
C6U A67G | 1.39
A5U A117G | 1.74
G7A A13U | 1.19
A4G U70C | 0.79
A5C A66U | 0.83

Variant | self-cleavage
C6U A23G | 1.15
A5C U102C | 0.96
C6U A68G | 0.79
A5G A95G | 1.27
A5U G44U | 0.8
A5G A36C | 1.79
A5G A36G | 0.8
A5G A98G | 0.7
A4G C85U | 0.99
A5U A114G | 0.49
A5G G74A | 0.73
A4G G14U | 0.67
A5G A22U | 1.01
A5G A22G | 0.81
A5G U102C | 1.34
A4U | 1.19
A5G U108C | 0.06
A5G U108A | 0.05
C6A A116G | 0.77
A4G U102C | 1.36
C6A U49G | 0.61
U9A A63G | 1.23
A5C U127C | 0.89
A5U C109U | 0.68

Variant | self-cleavage
A5C A59U | 1.73
A5G A62U | 1.09
G7A A62U | 1.38
A5U A62C | 1.64
A4G U39A | 1.27
G8A U43A | 2.05
G7A U133A | 0.79
U9A A54G | 1.42
A4U A13G | 1.23
A5G U122A | 1.34
A5G U122C | 0.91
G7A A86U | 1.86
G8C A110G | 0.26
U9A A24U | 2.1
A5U A63G | 1.2
A5C A126G | 1.54
A5G G99A | 0.66
C6A U43C | 0.5
C6U A18G | 0.91
A5G A27G | 1.02
A5U U39C | 1.1
A5G A69G | 1.54
A4G U132A | 0.44
A4G U132C | 0.72

Variant | self-cleavage
A5G C101A | 0.25
A4G C77U | 1.45
A5U U120C | 0.76
A5G A135U | 1.26
G7U A86U | 1.63
A4G C113U | 0.19
A5G U70A | 0.75
A4G U131C | 1.45
A4G U37C | 0.91
A5G A68C | 1.03
A5G A68U | 0.85
A5U U87A | 1.2
A5U C42A | 1.82
G7A C34U | 1.3
G7U U26C | 2.12
A5U U100C | 1.64
A5C U57C | 0.75
A4U U19C | 0.7
A5C U108C | 0.03
G7C A91G | 0.76
A5G C40U | 1.31
A5G G14C | 1.57
A5G G58A | 1.07
C6A A125G | 0.29

Variant | self-cleavage
A5U A94G | 1.51
A5U U102A | 1.12
C6U A60G | 0.8
A5U A82G | 0.6
A5G G21U | 0.96
A5U U19C | 1.4
C6A A67G | 0.72
G7A A23G | 0.87
G7U G21A | 0.87
C6A A55G | 1.13
A5G A114U | 0.04
A5G A114G | 0.41
C6U A96G | 1.1
A5G U97A | 1.57
A4U A118G | 1.08
A4U U70C | 0.89
C6A U124A | 0.95
A5G G44A | 0.86
C6U C45A | 1.31
C6U A125G | 0.53
C6U A62G | 0.56
A5G C88A | 0.8
C6U U37C | 1.08
A4G G83A | 1.44

Variant | self-cleavage
C6G U87C | 0.65
G7A A90U | 2.31
C6A A33U | 1.06
A5U A47G | 1
A5U A36U | 2.27
A5U A116G | 1.13
C6A A11G | 2.1
G7A A63G | 1.86
G8A A33U | 2.08
A5G G137U | 1.62
A5U U124C | 0.99
C6A U9C | 1.47
G7A A111U | 0.04
G8A A23G | 1.58
A5C U100C | 1.25
A4U U57G | 0.74
G8A A134G | 1.52
A5G G106C | 0.08
A5C A98G | 0.42
G8A A69G | 1.29
A5G U39A | 1.16
A5G U39C | 1.32
A5C U38C | 1.28
A4G U57C | 0.86

Variant | self-cleavage
C6G U19A | 1.65
G8A A52G | 2.73
A5G A64G | 1.16
A5G A64U | 1.85
A5U U9C | 1.27
A4U A30U | 1.05
A4U U133C | 1.79
A4G U139C | 1.21
A5C G106U | 0.07
G7U | 1.23
G7C | 1.07
G7A | 1.65
A4G C42U | 0.81
G8A U122C | 0.6
A5G U49A | 0.9
A4G U43C | 1.35
G7A U100A | 0.82
G7A U100C | 2.22
G7U U38C | 0.4
G7U A13G | 1.41
G8U A69G | 2.76
C6U U49C | 0.83
G7C A11G | 1.03
A5G A30G | 1.03

Variant | self-cleavage
A4U A96G | 1.05
U9A A66G | 1
G7U A11G | 1.63
A4U U120C | 0.54
A5G C35U | 1.59
U9A A30U | 1.22
A4G U122C | 0.78
G7A A55G | 1.39
G7U U130C | 1.45
G8A A91G | 1.17
C6A A89U | 1.38
A5G U100C | 1.11
G8C A52C | 2.89
A5G C45A | 0.99
U9A A22C | 0.95
U9A A23G | 0.95
A5U A54U | 1.7
A5U G29U | 1.39
A5U G29A | 1.2
A5G A18U | 1.12
A5G A18G | 0.8
A5G A116G | 0.47
A5U U43A | 2.16
G7A A60G | 2.29

Variant | self-cleavage
A5U G104A | 0.09
G7U A66G | 1.42
G7A U70C | 1
A4G U49A | 0.8
A4G U49C | 0.82
A5G A52U | 0.85
G7A A96U | 1.83
G7A A96G | 2.05
G8U A126G | 0.32
G7A U102C | 1.75
C6U A33U | 1.05
A5G C85U | 0.92
C6U U102C | 0.35
A4G G50U | 1.39
A5C U87C | 0.73
A5C A116G | 0.83
G7A U127C | 1.29
G8A A47C | 1.67
A5G A60G | 1.08
A5G A60U | 1.08
A5G G83A | 1.54
A5U A90G | 0.78
A5C A60G | 1.88
A4G G75A | 0.33

Variant | self-cleavage
A5G G48U | 0.93
C6G A126G | 1.2
G8A U108A | 0.05
C6U U108C | 0.08
A5G A92G | 0.53
A5G A140G | 0.77
A4U U132C | 2.14
A5G U87A | 0.62
A5G U37A | 1.3
A5G U37C | 1.29
A5G U38A | 0.58
A5G U38C | 1.14
C6A A60G | 0.5
U9A A60G | 0.57
G7U A23C | 1.66
G7U A23G | 1.04
A5C A30G | 0.85
C6U U130G | 0.44
C6U U130C | 0.74
G7A A27U | 0.85
G8A A59G | 1.47
A5G U130C | 1.01
G8U U108A | 0
A5G A33G | 0.67

Variant | self-cleavage
A5G A33U | 1.01
A5G A33C | 1.28
U9A A51U | 1.34
U9A A51G | 1.66
G7U U97A | 1.41
A5U U139C | 0.93
A5G A63U | 1.35
A5G A78C | 0.62
A5G A91G | 0.47
A5G A118U | 0.56
A5G A118G | 1
A4G U9C | 1.33
A5G A82G | 0.68
A5G A82U | 0.41
G7A A78U | 0.33
A5C A110U | 0.95
A5G A129G | 0.87
A5U A111G | 0.06
A5U A95G | 1.59
C6U U131C | 0.08
U9A A62U | 0.88
U9A A62G | 0.45
C6A U38A | 0.42
A5G A55C | 0.33

Variant | self-cleavage
G7C A23G | 0.73
G8A A98G | 1.78
A5G A24C | 0.68
A4U A114U | 0.22
C6U A82G | 0.72
G7U G138C | 2.14
A5G U57A | 1.09
A5G U57G | 1.17
G7U A118G | 1.38
A5U A56G | 1.76
A5U A56U | 1.15
A4G U133A | 1.25
A4G U133C | 1.3
G7U A68G | 2.39
A5U U26C | 0.57
A5G A23G | 0.8
G7A A67G | 1.61
C6U A118G | 1.06
A5G A51G | 1.2
A5G A51U | 1.35
U9A A47U | 0.91
A4G C35A | 1.14
A4U A36U | 1.62
A5G A56U | 1.18

Variant | self-cleavage
A5U A129G | 0.79
C6U U43A | 0.96
A5U U70C | 1.03
U9A A78G | 0.32
U9A A78U | 0.15
A4G G20A | 0.82
G7A U9C | 2.32
A5U A22G | 0.69
A5U C6U | 1.27
C6A C61U | 0.76
C6U U122C | 0.82
C6U A114U | 0.07
G7U G137U | 1.84
A4G G74C | 0.36
A5G A134U | 1.24
G8A A18U | 0.97
U9A A56G | 1.3
A5G G15A | 1.02
C6U A11G | 0.47
C6U A54G | 0.92
C6A A94G | 0.36
A5G G29A | 1.06
G8A A27G | 1.84
A4U A140U | 1.5

Variant | self-cleavage
A4G C88G | 1.46
A4G C88U | 0.96
G8A A68G | 2.15
C6U U127C | 0.57
G7A A54G | 0.81
C6U A78U | 0.25
C6U A78G | 0.4
A4U A59U | 1.95
G8A A118G | 1.28
A5G A11G | 0.63
C6U G106U | 0.06
G7U C77A | 0.23
A5G U9A | 1.38
G7U A52G | 1.83
C6G U130C | 0.63
G8A A117U | 1.67
A5G A59G | 0.99
U9A A36G | 1.59
A4G G137U | 2
A4U A47G | 0
A5U U131C | 1.52
A5C A33U | 2.21
